# Data reported in paper doi:10.1101/270363 (bioRxiv, 2018).
# Biological target: F-actin (filamentous actin) (rabbit, UniProt P68135 1-377)
# Experiment: co-sedimentation
row,Binder,binding result
1,CC2 fragment of nPIST (140th - 210th aa) (domain or fragment) QSVDSGAIKAKLSVHSVEDLERELEANKTEKVKEARLEAEVKLLRKENEALRRHIAVLQAEVYGARLAAKY,binds
2,CC1 fragment of nPIST (1st - 138th aa) (domain or fragment) MSAGGPCPAGAGGGPGGSSCPVGVSPGGVSMFRWLEVLEKEFDKAFVDVDLLLGEIDPDQADITYEGRQKMTSLSSCFAQLCHKAQTVSQINHKLEAQLVDLRSELTETQAEKVVLEKEVHEQLLQLHSTQLQLHAKT,binds
3,CC-WH2 fragment of nPIST (1st - 267th aa) (domain or fragment) MSAGGPCPAGAGGGPGGSSCPVGVSPGGVSMFRWLEVLEKEFDKAFVDVDLLLGEIDPDQADITYEGRQKMTSLSSCFAQLCHKAQTVSQINHKLEAQLVDLRSELTETQAEKVVLEKEVHEQLLQLHSTQLQLHAKTGQSVDSGAIKAKLSVHSVEDLERELEANKTEKVKEARLEAEVKLLRKENEALRRHIAVLQAEVYGARLAAKYLDKELAGRVQQIQLLGRDMKGPAHDKLWNQLEAEIHLHRHKTVIRACRGRNDLKRPM,binds
4,WH2 fragment of nPIST (200th - 289th aa) (domain or fragment) EVYGARLAAKYLDKELAGRVQQIQLLGRDMKGPAHDKLWNQLEAEIHLHRHKTVIRACRGRNDLKRPMQAPPGHDQDSLKKSQGVGPIRK,binds
